Here are results for two molecules from patent US20040180823A1 (BURNHAM INSTITUTE, published 2004).

Ends that are not written are not given here.

Assay [1] deals with T1, histidine-tagged mouse EphA2 Fc fusion protein (R&D Systems) (mouse, UniProt Q03145 26-535, limits assumed).
T1 construct: Bought; not shown: Fc portion and histidine tag
Description: SPR (BIAcore 3000), EphA2 Fc coupled to chip, equilibrium binding.

The target of a further assay is T2, EphB4 Fc fusion protein.
T2 construct: Eph receptor Fc fusion
T2 sequence (P54761 16-539): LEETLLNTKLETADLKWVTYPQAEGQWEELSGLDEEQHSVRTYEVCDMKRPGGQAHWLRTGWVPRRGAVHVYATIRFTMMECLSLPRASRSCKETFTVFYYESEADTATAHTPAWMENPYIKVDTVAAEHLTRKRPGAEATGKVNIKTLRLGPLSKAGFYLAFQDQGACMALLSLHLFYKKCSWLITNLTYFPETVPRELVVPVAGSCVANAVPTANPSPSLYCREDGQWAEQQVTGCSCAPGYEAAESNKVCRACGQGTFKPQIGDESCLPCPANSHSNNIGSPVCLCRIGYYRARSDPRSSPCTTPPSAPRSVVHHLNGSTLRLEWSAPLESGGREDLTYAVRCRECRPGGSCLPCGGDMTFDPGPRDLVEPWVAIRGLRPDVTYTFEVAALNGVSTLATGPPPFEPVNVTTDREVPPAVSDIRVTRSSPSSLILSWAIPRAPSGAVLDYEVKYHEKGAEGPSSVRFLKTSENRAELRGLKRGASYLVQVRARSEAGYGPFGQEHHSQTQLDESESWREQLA
Description: immobilized peptide capturing Eph receptor Fc (methods of Example 2).

T1 sequence (Q03145 26-535 limits assumed): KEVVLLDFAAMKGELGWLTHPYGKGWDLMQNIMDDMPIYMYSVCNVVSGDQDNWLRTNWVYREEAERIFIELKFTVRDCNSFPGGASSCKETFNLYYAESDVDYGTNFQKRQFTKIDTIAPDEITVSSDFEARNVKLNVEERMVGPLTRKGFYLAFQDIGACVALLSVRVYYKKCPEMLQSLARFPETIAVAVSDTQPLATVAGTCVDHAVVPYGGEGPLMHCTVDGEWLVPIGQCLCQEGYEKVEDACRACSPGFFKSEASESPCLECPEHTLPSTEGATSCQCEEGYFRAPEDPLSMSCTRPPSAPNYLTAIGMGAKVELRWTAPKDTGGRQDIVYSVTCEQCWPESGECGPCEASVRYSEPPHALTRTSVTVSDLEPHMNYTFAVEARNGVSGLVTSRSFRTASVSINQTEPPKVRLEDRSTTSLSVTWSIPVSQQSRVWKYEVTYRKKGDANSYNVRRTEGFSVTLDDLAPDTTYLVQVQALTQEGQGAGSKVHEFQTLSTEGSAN
Description for EphB4 Fc fusion protein: Bound Eph receptors were detected with anti-human Fc antibody conjugated to alkaline phosphatase (AP) (Promega, Madison, Wis.). […] Substrates were 2,2′-azino-bis(3-ethylbenzthiazoline-6-sulfonic acid) for horseradish peroxidase and p-nitrophenyl phosphate for AP.

B1: SWL peptide (synthetic, biotinylated) (peptide)
peptide: SWLAYPGAVSYRGSGSK
modifications: also: biotinylated, position not given here
The molecule B1 yielded a Kd in assay [1] of 678 nM.

B2: DAL synthetic peptide (biotinylated) (peptide)
peptide: DALNDWLLFRPWGSGSK
modifications: also: biotinylated, position not given here
As to B2, the “fold more EphB4 bound compared to other EphB family receptors” value with EphB4 Fc fusion protein was determined as 4 fold.
